The source of these data is patent publication US9944712B2, “TLR3 binding agents” (INNATE PHARMA, priority 2012, dated 2018).

Where a chain is given by its changes, count along the chain named.

The test system of one experiment is COPD mouse model. Description: COPD mouse model (Elastin and LPS). The class given is in vivo. Conditions: drug combination study, FIG. 5E. The protocol:
All mice were treated at days 0, 7, 14 and 21 with Elastin and LPS (i.n.), to induce COPD. At day 28 mice were sacrificed for analysis.
The cellular infiltrates into airways was measured by analysis of bronchoalveolar lavage (BAL) fluid by differential cell count on day 28. The oxygenation of venous blood was measured by gasometry on day 28. The level inflammatory mediators in BALF, through the analysis for protein levels of TNF-alpha, IL-6, IL-17A and IP-10 was performed by multiplex assay. […] Statistical analysis was performed on all data utilizing a Student's t test: ‘*’ p<0.05; ‘**’ p<0.005; ‘***’ p<0.0005.
Four groups of mice were treated as follows: • 1 group of mice with a vehicle (PBS, i.p., twice per week). • 1 group of mice with the anti-mouse TLR3 28G7 antibody administration (i.p., 500 μg/per mouse, […]; antagonist of PDE-4) (3 mg/kg, oral, five times per week). • 1 group of mice with both roflumilast and 28G7 antibody, each agent according to the schedule used as single agent.
All mice were treated with Elastin and LPS (i.n.), to induce COPD and sacrificed as in study A.
The cellular infiltrates into airways was measured by analysis of bronchoalveolar lavage (BAL) fluid by differential cell count as in Study A.

Another experiment has as its system TLR3 mutant polypeptides. Description: FACS staining of cells expressing TLR3 mutant polypeptides (epitope mapping). In kind it is binding, human. The conditions noted are these: for binding to wild type TLR3 and mutants K145E, D116R, E171A, K182E or N196A: FACS; for binding to TLR3 in presence of the mutation K145E or K182E: hybridoma clone screening. The protocol:
Mutagenesis was performed on wild type human TLR3 inserted into a pcDNA3.1 vector. After sequencing, the vectors containing the mutated sequences were prepared as Maxiprep using the Promega PureYield™ Plasmid Maxiprep System. Vectors were then used for HEK-293T cell transfection using Invitrogen's Lipofectamine 2000 according to the manufacturer instructions.
All the Mx-R primers were used with the following 5′ primer […] (SEQ ID NO: 121). All the Mx-F primers were used with the following 3′ primer […] (SEQ ID NO: 122). The sequences amplified were run on agarose gel then purified using the Qiagen Gel Extraction kit. The two PCR product generated for each mutant were then ligated into a pcDNA3.1 vector, digested with the restriction enzyme NheI and NotI, with the InFusion system (Clontech) according to the manufacturer's instructions.
After sequencing, the vectors containing the mutated sequences were prepared as Maxiprep using the Promega PureYield™ Plasmid Maxiprep System. Vectors were then used for HEK-293T cell transfection using Invitrogen's Lipofectamine 2000 according to the manufacturer instructions.
(§1) The mature wild-type or mutant TLR3 sequence was fused to the CD32 transmembrane and intracellular domains as described by De Bouteiller et al. (2005) J. Biol. Chem. 280(46): 38133-38145. A first round of PCR was performed to introduce a V5 tag in N-terminal position of the TLR3-CD32 fusion protein and a second round—using the first PCR as a template—to introduce the TLR3 leader peptide in the construct. The PCR product was TA-cloned into the pGEMTeasy vector for sequencing and finally cloned into the pcDNA3.1 vector using the NheI and NotI restriction sites.
(§2) Following two wash cycles, cell MFI was analyzed on a FACS Canto II cytometer. With the aim to study the effect of pH on mAb affinity, staining was performed in staining buffer (0.2% BSA, 2 mM EDTA, 0.02% Sodium Azoture) pH7.4 or in citric acid-acidified staining buffer pH5.6.
Secondary screening was performed as in immunization #1, above. Potentially interesting hybridomas were cloned by limiting dilution techniques in 96-wells plates, and clones were tested in the same series of secondary screens as for hybridomas. With the aim to compare hybridomas to our reference anti-TLR3 mAbs, the hybridomas were amplified and their supernatants were purified. Purified mAbs were tested in a gene-reporter assay.
Antibodies were then tested for binding to further set of mutants in the N-terminal portion of TLR3 to identify new epitopes. Antibodies were therefore tested for binding to TLR3 mutants. TLR3 mutant polypeptides having mutations in positions Q44H and V45I, R64Q and R65Q, T86S and K89Q, K97I and M100L, K117Q and A120V, Q136H, N140S, V144K and K145N, K147A, K163A, Q167G, Q184L and K187R, Q184L and K187Q, D192E and A195G, Q208P and 1209L, H218Q, A219T, G234N and S236H, L243W and A246S, S112A. Q113S. and S115A, and K137S and K139A (reference to SEQ ID NO: 1) were prepared as described herein in the Materials and Methods and anti-TLR3 antibody staining to cells expressing TLR3 mutant polypeptides was assessed by FACS.

A further experiment deals with human TLR3 (Homo sapiens, UniProt O15455). Description: 293T-TLR3-ISRE luciferase reporter assay. The class given is cell-based. Conditions: dsRNA TLR3 agonists. An excerpt: A reporter gene assay using as promoter ISRE (IFN-stimulated response element) and as reporter gene and protein luciferase was set up. A 293T cell line (ATCC, #CRL-1573) was stably transfected with pISRE-luc plasmid (#219089—Stratagene), further selected by cloning as inducing optimal response to IFN-alpha stimulation and referred to as control 293T-ISRE. This cell line was further stably transfected with pUNO-humanTLR3 plasmid (#puno-htlr3—InVivogen) and referred to as 293T-TLR3-ISRE.
Efficacy assay was performed as described: on day 0, cells are seeded at 4×10^5 cells/mL in complete culture medium in 96-well culture plate (100 μl/well). Cells are first incubated at 37° C. for 20 hours, then 50 μL of medium are discarded and cells are activated with 25 μl/well final of fixed amounts of polyAU together with increasing concentrations of anti-TLR3 antibodies. Cells incubated with fresh medium will be used as background luciferase activity (50 μl/well). Cells are incubated at 37° C. for 6 hours. 100 μL of freshly thawed Steady Glo (Promega) are added to each well, plates were incubated 10 min at RT in the dark and the light emitted in each well is quantified as Count Per Second (CPS) on a gamma-counter (TopCount) apparatus.
Antibodies were tested for inhibition of TLR3 signaling in a luciferase based reporter gene activity (293T-TLR3-ISRE). Engagement of TLR3 receptor using TLR3-agonists such as poly (I:C) has been reported to activate the type-IFN pathway including the promoter ISRE (Wietek et al. J. Biol. Chem., 278 (51), p50923, 2003). Briefly, dsRNA TLR3 agonists were used to induce TLR3 signaling in the reporter assay in the presence of anti-TLR3 antibodies, and TLR3 signaling was assessed. […] Each antibody is compared with reference antibody 31C3.
In general terms: In a reporter assay the amount or activity of a reporter protein is the signal.

Experiment [1] addresses T1, human TLR3 solely at the cell surface (TLR3/CD32-expressing 293T cells) (Homo sapiens, UniProt O15455).
T1 construct: transiently transfected with the wild-type or mutant TLR3 ECD-CD32 construct; expressed in transfected cells; host or cells: HEK293T, transient, pcDNA3.1
Description: Titration on HEK293T cells expressing TLR3 ECD-CD32 solely at the cell surface (FACS). The conditions noted are these: neutral pH. In kind it is binding. The protocol:
as §1, §2
Additionally, binding (e.g. affinity) to cell surface TLR3 at neutral pH may differ from that of endosomally-expressed TLR3 at acidic pH. Antibodies were tested for binding to cells expressing human TLR3 solely at the cell surface (TLR3/CD32-expressing 293T cells), at neutral pH conditions since pH could potentially affect TLR3 conformation.

Take `O=C(Nc1c(Cl)cncc1Cl)c1ccc(OC(F)F)c(OCC2CC2)c1` [Roflumilast, roflumilast]: in the experiment with COPD mouse model (28G7 i.p. 500 μg twice per week, roflumilast 3 mg/kg oral five times per week), the “infiltration of neutrophils into the airways (BAL differential cell count)” value is “decreased infiltration of neutrophils”. Moreover, the “BAL macrophages and lymphocytes” value in the experiment on COPD mouse model is listed as “decreases in macrophages”.

B1: 11E1: mouse anti-human TLR3 monoclonal antibody; VH SEQ ID NO: 3, VL SEQ ID NO: 4 (antibody, listed as Mus musculus, V domains shown)
VH: QVQLQQPGAELVRPGASVKLSCKASGYTFTNYWMNWVKQRPGQGLEWIGMIDPSDSETHYNQMFKDKATLTVDKSSSTAYMQLSSLTSEDSAVYYCARGGASSDYYYFDYWGQGTTLTVSSASTK
VL: ETTVTQSPASLSMAIGEKVTIRCITSTDIHDDINWYQQKPGEPPKLLISEGNTLRPGVPSRFSSSGYGTDFVFTIENMLSEDVADYYCLQSDNLPRTFGGGTKLEIKRT
Take B1: in the experiment with TLR3 mutant polypeptides, the “binding to wild type TLR3 and mutants K145E, D116R, E171A, K182E or N196A” value (shortened to “binding … K182E or N196A”) is on record as “did not show any loss of binding”; the “binding to TLR3 in presence of the mutation K145E or K182E” value (“binding to TLR3 in presence” below) is “bound TLR3”. In addition, the “inhibition of dsRNA-induced TLR3 signaling, potency compared with antibody 31C3” value (“inhibition … compared with antibody 31C3” for short) with human TLR3 is recorded as “more potent”. Moreover, the “binding to surface-expressed human TLR3” value in experiment [1] is “strong binding”.

B2: 37B7: rat anti-human TLR3 monoclonal antibody; VH SEQ ID NO: 36, VL SEQ ID NO: 37 (antibody, listed as Rattus norvegicus, V domains shown)
VH: QVQLQQSGTELVKPGSSVKISCKASGYTFTSNYMHWIRQLPGNGLEWIGWIFPGDGDTNYNQKFNGKATLTADKSSSTAYMQLSSLTSEDYAVYFCARSDGDWYFDFWGPGTMVTVSS
VL: DIQMTQSPGSLSASLGETVTIQCQASEDIYSGLAWYQQKPRKSPQLLISAASRLQDGVPSRFSGSGSGTQYSLKISSMQTEDEGVYFCQQGVKYPNTFGPGTKLELK
As to B2, in the experiment on TLR3 mutant polypeptides, the “binding … K182E or N196A” value is listed as “did not show any loss of binding”; the “binding to TLR3 in presence” value is recorded as “bound TLR3”. For the same molecule, the “inhibition … compared with antibody 31C3” value with human TLR3 was “more potent”.

B3: 7G11: rat anti-human TLR3 monoclonal antibody; VH SEQ ID NO: 47, VL SEQ ID NO: 48 (antibody, listed as Rattus norvegicus, V domains shown)
VH: EVQLQQYGAELGKPGTSVKLSCKVSGYNITYTYMHWVNQRPGKGLEWIGRIDPANGNTIYGEKFKNKATLTADTSSNTAYMQLSQLKSDDTAIYFCAMGEFDYFDHWGQGVMVTVSS
VL: DIQMTQSPASLSASLGETVSIECLASEDISNDLAWYQQKSGKSPQVLIYAASRLEDGVPSRFSGSGSGTRYSLKISGMQPEDEADYFCQQSYKYPVTFGSGTKLEIK
As to B3, in the experiment with TLR3 mutant polypeptides, the “binding … K182E or N196A” value is given as “did not show any loss of binding”; the “binding to TLR3 in presence” value was “bound TLR3”. The “inhibition … compared with antibody 31C3” value in the experiment with human TLR3 is reported as “more potent”. The “binding to surface-expressed human TLR3” value in experiment [1] is “strong binding”.

B4: 31F6: rat anti-human TLR3 monoclonal antibody; VH SEQ ID NO: 14, VL SEQ ID NO: 15 (antibody, listed as Rattus norvegicus, V domains shown)
VH: EVQLQQSGAELGKPGTSVKLSCKVSGYNIRYTYMHWVNQRPGKGLEWIGRIDPANGDSIYGEDFKTKATLTADTSSNTAYMQLSQLKSDDTAIYFCAMGEFDYFDYWGQGVMVTVSSASTK
VL: B3 VL with A9P, D28G, K39R, V46L, E55Q, S91N, V96L
In the case of B4, in the experiment on TLR3 mutant polypeptides, the “binding … K182E or N196A” value is “did not show any loss of binding”; the “binding to TLR3 in presence” value is “bound TLR3”. In addition, the “inhibition … compared with antibody 31C3” value in the experiment with human TLR3 is “more potent”. Besides, the “binding to surface-expressed human TLR3” value in experiment [1] was “strong binding”.

B5: 32C4: rat anti-human TLR3 monoclonal antibody; VH SEQ ID NO: 25, VL SEQ ID NO: 26 (antibody, listed as Rattus norvegicus, V domains shown)
VH: EVQLQQYGAELGKPGTSVKLSCKVSGYNIWSTYIYWVNQRPGKGLEWIGRIDPANGNTIYAEKFKTKATLTADTSSNTAYMQLSQLKSDDTAIYFCAMGDHGGYVMDAWGQGASVTVSS
VL: DIQMTQSPGSLSASLGETVSIECLASEDIYSYLAWYQQKPGKSPQLLIYAANRLEDGVPSRFSGSGSGTQYSLKISGMQPEDEGDYFCLQGSEFPYTFGTGTKLELK
In the case of B5, in the experiment with TLR3 mutant polypeptides, the “binding … K182E or N196A” value is listed as “did not show any loss of binding”; the “binding to TLR3 in presence” value is on record as “bound TLR3”. In the experiment with human TLR3, the “inhibition … compared with antibody 31C3” value is recorded as “more potent”. In addition, in experiment [1], the “binding to surface-expressed human TLR3” value was “strong binding”.
